B1: cdr2 209-217 LSLERQKRV (peptide)
peptide: LSLERQKRV
B2: cdr2 172-180 VYDHVFAEK (peptide)
peptide: VYDHVFAEK
B3: cdr2 37-45 TLLDRNTEL (peptide)
peptide: TLLDRNTEL
B4: cdr2 242-250 AYRARALEL (peptide)
peptide: AYRARALEL
B5: cdr2 414-422 SSPTTPPEY (peptide)
peptide: SSPTTPPEY
B6: cdr2 439-447 EIDEQRTKY (peptide)
peptide: EIDEQRTKY
B7: cdr2 350-358 DTQYSALKV (peptide)
peptide: DTQYSALKV
B8: cdr2 207-215 AQLSLERQK (peptide)
peptide: AQLSLERQK
B9: cdr2 296-304 LTVPESHRK (peptide)
peptide: LTVPESHRK
B10: cdr2 28-36 LQLAAELGK (peptide)
peptide: LQLAAELGK
B11: cdr2 205-213 LQAQLSLER (peptide)
peptide: LQAQLSLER
B12: cdr2 236-244 QLGATGAYR (peptide)
peptide: QLGATGAYR
B13: cdr2 240-248 TGAYRARAL (peptide)
peptide: TGAYRARAL
B14: cdr2 211-219 LERQKRVTM (peptide)
peptide: LERQKRVTM
B15: cdr2 442-450 EQRTKYRSL (peptide)
peptide: EQRTKYRSL
B16: cdr2 196-204 EHLKKTVTM (peptide)
peptide: EHLKKTVTM
B17: cdr2 432-440 CIKKTKQEI (peptide)
peptide: CIKKTKQEI

Target: T1, HLA-A*0201 (human)
T1 construct: also called HLA-A2.1; HLA A2.1
Assay: iTopia off-rate

t1/2	Binder
1.25	B1

Target: HLA-A*2402 (human)
Assay: iTopia affinity

ED50 [µM]	Binder
6.2	B2
56	B3
0.16	B4

Target: HLA-A*0101 (human)
Assay: iTopia affinity

ED50 [µM]	Binder
130	B5
31	B6
49	B7

Target: HLA-A*1101 (human)
Assay: iTopia affinity

ED50 [µM]	Binder
8.8	B2
5.7	B8
4.8	B9
7.9	B10
11	B11
27	B12

Target: HLA-B*0801 (human)
Assay: iTopia affinity

ED50 [µM]	Binder
18	B13
140	B14
15	B15
130	B16
360	B3
240	B17
280	B1
26	B4

Target: HLA-A*1101 (human)
Assay: iTopia net score

iScore	Binder
0.146	B2
0.271	B8
0.558	B9
0.194	B10
0.118	B11
0.038	B12

Target: HLA-B*0801 (human)
Assay: iTopia net score

iScore	Binder
0.085	B13
0.037	B14
0.16	B15
0.065	B16
0.045	B3
0.054	B17
0.046	B1
0.066	B4

Target: HLA-B*0702 (human)
Assay: iTopia off-rate

t1/2	Binder
0.22	B13
1.59	B15
0.15	B4

Target: HLA-A*0301 (human)
Assay: iTopia off-rate

t1/2	Binder
0.36	B2
0.97	B8
1.53	B9
1.12	B10
0.99	B11
0.92	B12

Target: HLA-A*1101 (human)
Assay: iTopia off-rate

t1/2	Binder
0.7	B2
1.4	B8
4.59	B9
1	B10
0.56	B11
0.2	B12

Target: T1, HLA-A*0201
Assay: iTopia binding;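 note: each peptide tested for binding to HLA-A2 molecules immobilized on plates, using a commercial screening kit run per its supplied protocol and reagents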

binding vs positive control [%]	Binder
> 30	B1

Target: HLA-B*0702 (human)
Assay: iTopia net score

iScore	Binder
0.082	B13
0.031	B15
0.033	B4

Target: HLA-A*2402 (human)
Assay: iTopia off-rate

t1/2	Binder
1.65	B2
1.39	B3
1.11	B4

Target: HLA-A*0301 (human)
Assay: iTopia affinity

ED50 [µM]	Binder
25	B2
25	B8
26	B9
15	B10
19	B11
15	B12

Target: T1, HLA-A*0201
Assay: iTopia net score

iScore	Binder
0.139	B1

Target: T1, HLA-A*0201
Assay: iTopia affinity

ED50 [µM]	Binder
8.4	B1

Target: HLA-A*0301 (human)
Assay: iTopia net score

iScore	Binder
0.048	B2
0.075	B8
0.128	B9
0.086	B10
0.087	B11
0.122	B12

Target: HLA-A*0101 (human)
Assay: iTopia net score

iScore	Binder
0.05	B5
0.107	B6
0.04	B7

Target: HLA-B*0702 (human)
Assay: iTopia affinity

ED50 [µM]	Binder
5.7	B13
100	B15
23	B4

Target: HLA-A*2402 (human)
Assay: iTopia net score

iScore	Binder
0.165	B2
0.08	B3
0.611	B4

Target: HLA-A*0101 (human)
Assay: iTopia off-rate

t1/2	Binder
0.96	B5
1.26	B6
0.4	B7

Source: patent US20090208538A1 (ROCKEFELLER UNIVERSITY, published 2009)
